The supplement of paper PMC10567573

B1: GAGE1 (parent)
chain: QPPEMIGPMRPEQFSDEVEPATPE
B2: SPRY1 (parent)
chain: WIHRPGCRCKNSNTVYCKLESCPS

Variants of: B1
Assay: protein stability index of a GFP-peptide fusion (GPS, HEK-293T) (PSI 1-6); higher = more stable
Settings: c terminus: a fixed tail appended
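Note: lentivirally expressed fusions sorted by FACS into six bins by GFP to DsRed ratio, PSI derived from sequencing read proportions per bin multiplied by bin number.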

Protein stability index: each site, then its substitutions
G7: H 5.48 | P 5.56 | D 5.22 | C 5.63 | N 5.91 | M 5.55 | F 5.83 | E 5.69 | Q 5.69 | T 5.46 | K 5.54 | R 5.68 | L 5.44 | V 5.68 | S 5.68 | A 5.38 | I 5.14
Q1: L 5.07 | E 5.01 | M 5.27 | F 4.95 | A 4.84 | I 4.78 | H 5.06 | K 4.57 | R 5.04 | W 5.49 | Y 4.8 | N 5.06 | S 4.89 | T 4.94 | G 4.64 | D 5.42 | C 5.33 | V 4.68
I6: P 5.52 | Y 5.65 | R 5.86 | S 6 | M 5.59 | H 5.72 | E 5.81 | N 5.72 | L 5.64 | V 5.79 | A 5.59 | T 5.72 | D 5.79 | W 5.83 | C 5.91 | K 5.78 | Q 5.32 | G 5.45 | F 5.89
P2: F 5.11 | L 4.88 | I 4.28 | E 4.88 | C 5.32 | W 4.48 | K 4.99 | G 5.6 | R 4.8 | S 4.65 | A 4.8 | Q 4.64 | V 4.4 | M 4.59 | N 5.34 | Y 4.8 | H 5.25 | T 5.09 | D 4.87
M5: Y 4.99 | L 4.55 | C 4.73 | G 5.45 | R 5.81 | N 5 | E 5.15 | I 4.57 | K 5.27 | S 3.55 | A 5.68 | V 4.27 | F 5.32 | D 5.02 | H 5.5 | Q 5.25 | T 5.19 | P 5.9 | W 5.54
E4: S 5.2 | Y 5.75 | V 5.41 | R 5.74 | I 5.52 | H 5.6 | P 5.56 | M 5.65 | L 5.54 | W 5.61 | D 5.65 | G 5.72 | N 5.48 | K 5.46 | Q 5.68 | A 5.75 | C 5.58 | T 5.56 | F 5.62
P3: I 4.9 | D 5.75 | A 5.73 | T 5.57 | S 5.26 | G 5.17 | L 4.76 | F 5.22 | N 5.4 | C 5.44 | E 5.63 | K 5.64 | W 5.23 | M 5.76 | V 4.83 | Q 5.51 | R 5.71 | Y 5.32 | H 5.52

Variants of: B2
Assay: as above
Settings: c terminus: a fixed tail appended

Protein stability index: each site, then its substitutions
P5: D 3.42 | E 3.08 | K 2.21 | N 2.39 | Q 2.38 | T 2.37 | A 2.02 | G 1.85
N11: L 2.51 | Y 2.07 | S 2.7 | D 2.88 | W 2.6 | P 2.27 | K 2.19 | V 3.49 | G 2.15
R4: Y 3.18 | Q 4.23 | P 3.03 | L 3.06 | N 3.43 | K 2.34 | I 2.82 | E 3.48 | G 3.95
N13: G 2.23 | F 2.3 | Q 2.26 | H 1.91 | K 1.17 | W 2.81 | L 2.31 | V 2.04 | A 1.92
K18: I 1.68 | N 2.66 | L 1.8 | V 1.7 | G 2.58 | S 2.28 | A 1.91 | H 2.1 | M 2.46 | Q 2.25 | D 3.3
H3: L 2.31 | F 1.87 | V 1.72 | Q 2.5 | S 3.16 | P 2.79 | D 3.37 | K 2.13 | C 1.48 | I 1.74 | R 2.44 | A 2.75
C9: K 1.84 | P 2.4 | D 2.07 | Q 2 | T 1.49 | R 1.45 | H 1.85 | N 1.97 | G 1.73
P23: E 2.03 | C 2.43 | W 2.35 | F 3.63 | A 2.29 | V 1.47 | G 2.84
S12: L 3.01 | Q 2.14 | K 2.32 | I 2.4 | T 2.28 | G 3.79 | V 2.2 | E 2.71 | F 2.1
T14: H 1.99 | G 2.8 | F 1.9 | Q 2.87 | A 2.89 | R 1.54 | S 2.59
I2: D 3.9 | Q 2.82 | H 2.77 | V 2.76 | K 3.39 | F 1.61 | R 2.46 | L 2.34 | T 3.13 | E 3.89
E20: P 1.92 | H 1.78 | N 2.13 | L 2.06 | C 2.41
S21: Q 2.14 | F 2.56 | G 2.22 | W 2.75 | A 2.13 | T 2.17
S24: L 2 | G 2.1 | C 2.5 | K 2.05 | E 2.52 | N 2.1 | V 2.5
K10: V 2 | S 2.26 | P 2.73 | Y 1.82 | L 1.96 | E 2.73 | N 2.75 | F 1.74 | A 2.33 | H 2.77
C7: P 1.4 | A 2.35 | H 2.55 | M 2.14 | F 2.89 | N 2.37 | W 3 | T 1.82 | Y 1.45 | E 1.85
C17: M 2.21 | A 1.44 | K 2.42 | S 2.13 | E 2.39 | P 2.1
L19: P 2.01 | F 2.06 | G 2.68 | I 1.76 | D 3.51 | C 3.1 | Q 2.59 | K 2.46
G6: M 2.16 | C 2 | R 2.12 | L 1.97 | N 2.37 | A 2.15 | D 2.62 | P 2.61 | W 2.69 | Y 2.26 | K 2.32
V15: I 2.14 | M 1.74 | G 2.69 | E 2.49 | L 2.34 | K 2.18 | S 2.35 | C 2.42 | N 2.68 | H 2.06 | F 2.37 | A 2.41 | P 3.11
W1: R 3.79 | H 3.72 | A 3.52 | I 3 | L 3.54 | E 3.75 | Y 2.13 | C 3.78
R8: W 2.21 | N 3.28 | M 2.83 | K 2.68 | L 2.6 | E 3.33 | A 3 | P 2.4
Y16: F 1.74 | C 2.69 | D 2.91 | M 2.02
C22: S 2.26 | T 2.07 | V 2.52 | E 2.02 | G 2.29 | N 1.9 | Q 1.98 | R 3.31
